Data: the Human Domainome abundance scans (Beltran et al. 2025)
± gives the uncertainty stated by the source.

B1: Ras GTPase-activating protein 1, residues 281 to 341; numbered along this chain, P20936 (parent)
chain: RRRVRAILPYTKVPDTDEISFLKGDMFIVHNELEDGWMWVTNLRTDEQGLIVEDLVEEVGR

Variants of: B1
Test: abundance fitness (aPCA) (normalised: wild type 0, dead -1); higher = more abundant; growth selection in yeast, the domain comes from the species named
Settings: Homo sapiens

Variant	abundance fitness
RRRVRAILPYTKVPDTDEISFLKGDMFIVHNELEDGWMWVTNLRTDEQGLIWEDLVEEVGR	-0.047 ± 0.046
RRRVRAILPYTKVPDTDEISFLKGDMFIVHNELEDGWMWVTNLRTDEQGLIKEDLVEEVGR	0 ± 0.046
RRRVRAILPYTKVPDTDEISFLKGDMFIVHNELEDGWMWVTNLRTDEQGLIHEDLVEEVGR	0.029 ± 0.031
RRRVRAILPYTKVPDTDEISFLKGDMFIVHNELEDGWMWVTNLRTDEQGLIREDLVEEVGR	0.043 ± 0.027
RRRVRAILPYTKVPDTDEISFLKGDMFIVHNELEDGWMWVTNLRTDEQGLIEEDLVEEVGR	-0.123 ± 0.052
RRRVRAILPYTKVPDTDEISFLKGDMFIVHNELEDGWMWVTNLRTDEQGLINEDLVEEVGR	0.015 ± 0.028
RRRVRAILPYTKVPDTDEISFLKGDMFIVHNELEDGWMWVTNLRTDEQGLIQEDLVEEVGR	0.045 ± 0.056
RRRVRAILPYTKVPDTDEISFLKGDMFIVHNELEDGWMWVTNLRTDEQGLILEDLVEEVGR	0.041 ± 0.027
RRRVRAILPYTKVPDTDEISFLKGDMFIVHNELEDGWMWVTNLRTDEQGLIFEDLVEEVGR	0.009 ± 0.026
RRRVRAILPYTKVPDTDEISFLKGDMFIVHNELEDGWMWVTNLRTDEQGLIIEDLVEEVGR	0.022 ± 0.027
RRRVRAILPYTKVPDTDEISFLKGDMFIVHNELEDGWMWVTNLRTDEQGLIMEDLVEEVGR	0.031 ± 0.072
RRRVRAILPYTKVPDTDEISFLKGDMFIVHNELEDGWMWVTNLRTDEQGLISEDLVEEVGR	0.013 ± 0.025
RRRVRAILPYTKVPDTDEISFLKGDMFIVHNELEDGWMWVTNLRTDEQGLIDEDLVEEVGR	-0.121 ± 0.031
RRRVRAILPYTKVPDTDEISFLKGDMFIVHNELEDGWMWVTNLRTDEQGLITEDLVEEVGR	0.023 ± 0.03
RRRVRAILPYTKVPDTDEISFLKGDMFIVHNELEDGWMWVTNLRTDEQGLIAEDLVEEVGR	0.072 ± 0.029
RRRVRAILPYTKVPDTDEISFLKGDMFIVHNELEDGWMWVTNLRTDEQGLIGEDLVEEVGR	0.059 ± 0.024
RRRVRAILPYTKVPDTDEISFLKGDMFIVHNELEDGWMWVTNLRTDEQGLIPEDLVEEVGR	0.04 ± 0.035
RRRVRAILPYTKVPDTDEISFLKGDMFIVHNELEDGWMWVTNLRTDEQGLICEDLVEEVGR	0.024 ± 0.027
RRRVRAILPYTKVPDTDEISFLKGDMFIVHNELEDGWMWVTNLRTDEQGLIVEDLMEEVGR	-0.23 ± 0.056
RRRVRAILPYTKVPDTDEISFLKGDMFIVHNELEDGWMWVTNLRTDEQGLIVEDLNEEVGR	-0.874 ± 0.056
RRRVRAILPYTKVPDTDEISFLKGDMFIVHNELEDGWMWVTNLRTDEQGLIVEDLLEEVGR	-0.711 ± 0.038
RRRVRAILPYTKVPDTDEISFLKGDMFIVHNELEDGWMWVTNLRTDEQGLIVEDLEEEVGR	-1.07 ± 0.15

Variant	abundance fitness
RRRVRAILPYTKVPDTDEISFLKGDMFIVHNELEDGWMWVTNLRTDEQGLIVEDLIEEVGR	-0.031 ± 0.028
RRRVRAILPYTKVPDTDEISFLKGDMFIVHNELEDGWMWVTNLRTDEQGLIVEDLKEEVGR	-0.741 ± 0.1
RRRVRAILPYTKVPDTDEISFLKGDMFIVHNELEDGWMWVTNLRTDEQGLIVEDLAEEVGR	-0.421 ± 0.035
RRRVRAILPYTKVPDTDEISFLKGDMFIVHNELEDGWMWVTNLRTDEQGLIVEDLCEEVGR	-0.126 ± 0.028
RRRVRAILPYTKVPDTDEISFLKGDMFIVHNELEDGWMWVTNLRTDEQGLIVEDLPEEVGR	-0.778 ± 0.054
RRRVRAILPYTKVPDTDEISFLKGDMFIVHNELEDGWMWVTNLRTDEQGLIVEDLFEEVGR	-0.953 ± 0.047
RRRVRAILPYTKVPDTDEISFLKGDMFIVHNELEDGWMWVTNLRTDEQGLIVEDLGEEVGR	-0.85 ± 0.046
RRRVRAILPYTKVPDTDEISFLKGDMFIVHNELEDGWMWVTNLRTDEQGLIVEDLDEEVGR	-0.887 ± 0.052
RRRVRAILPYTKVPDTDEISFLKGDMFIVHNELEDGWMWVTNLRTDEQGLIVEDLHEEVGR	-0.93 ± 0.069
RRRVRAILPYTKVPDTDEISFLKGDMFIVHNELEDGWMWVTNLRTDEQGLIVIDLVEEVGR	-0.052 ± 0.03
RRRVRAILPYTKVPDTDEISFLKGDMFIVHNELEDGWMWVTNLRTDEQGLIVKDLVEEVGR	0.01 ± 0.054
RRRVRAILPYTKVPDTDEISFLKGDMFIVHNELEDGWMWVTNLRTDEQGLIVTDLVEEVGR	0.041 ± 0.032
RRRVRAILPYTKVPDTDEISFLKGDMFIVHNELEDGWMWVTNLRTDEQGLIVHDLVEEVGR	-0.003 ± 0.032
RRRVRAILPYTKVPDTDEISFLKGDMFIVHNELEDGWMWVTNLRTDEQGLIVRDLVEEVGR	-0.019 ± 0.028
RRRVRAILPYTKVPDTDEISFLKGDMFIVHNELEDGWMWVTNLRTDEQGLIVQDLVEEVGR	-0.034 ± 0.074
RRRVRAILPYTKVPDTDEISFLKGDMFIVHNELEDGWMWVTNLRTDEQGLIVADLVEEVGR	-0.027 ± 0.032
RRRVRAILPYTKVPDTDEISFLKGDMFIVHNELEDGWMWVTNLRTDEQGLIVYDLVEEVGR	-0.121 ± 0.027
RRRVRAILPYTKVPDTDEISFLKGDMFIVHNELEDGWMWVTNLRTDEQGLIVDDLVEEVGR	-0.045 ± 0.03
RRRVRAILPYTKVPDTDEISFLKGDMFIVHNELEDGWMWVTNLRTDEQGLIVPDLVEEVGR	-0.031 ± 0.04
RRRVRAILPYTKVPDTDEISFLKGDMFIVHNELEDGWMWVTNLRTDEQGLIVFDLVEEVGR	-0.337 ± 0.03
RRRVRAILPYTKVPDTDEISFLKGDMFIVHNELEDGWMWVTNLRTDEQGLIVVDLVEEVGR	-0.053 ± 0.028
RRRVRAILPYTKVPDTDEISFLKGDMFIVHNELEDGWMWVTNLRTDEQGLIVSDLVEEVGR	0.021 ± 0.025

Variant	abundance fitness
RRRVRAILPYTKVPDTDEISFLKGDMFIVHNELEDGWMWVTNLRTDEQGLIVWDLVEEVGR	-0.203 ± 0.055
RRRVRAILPYTKVPDTDEISFLKGDMFIVHNELEDGWMWVTNLRTDEQGLIVCDLVEEVGR	-0.079 ± 0.026
RRRVRAILPYTKVPDTDEISFLKGDMFIVHNELEDGWMWVTNLRTDEQGLIVLDLVEEVGR	-0.236 ± 0.03
RRRVRAILPYTKVPDTDEISFLKGDMFIVHNELEDGWMWVTNLRTDEQGLIVGDLVEEVGR	0.03 ± 0.027
RRRVRAILPYTKVPDTDEISFLKGDMFIVHNELEDGWMWVTNLRTDEQGLYVEDLVEEVGR	-0.834 ± 0.048
RRRVRAILPYTKVPDTDEISFLKGDMFIVHNELEDGWMWVTNLRTDEQGLVVEDLVEEVGR	0.023 ± 0.026
RRRVRAILPYTKVPDTDEISFLKGDMFIVHNELEDGWMWVTNLRTDEQGLWVEDLVEEVGR	-0.826 ± 0.072
RRRVRAILPYTKVPDTDEISFLKGDMFIVHNELEDGWMWVTNLRTDEQGLQVEDLVEEVGR	-1.07 ± 0.16
RRRVRAILPYTKVPDTDEISFLKGDMFIVHNELEDGWMWVTNLRTDEQGLRVEDLVEEVGR	-0.786 ± 0.044
RRRVRAILPYTKVPDTDEISFLKGDMFIVHNELEDGWMWVTNLRTDEQGLTVEDLVEEVGR	-0.784 ± 0.054
RRRVRAILPYTKVPDTDEISFLKGDMFIVHNELEDGWMWVTNLRTDEQGLIVEDNVEEVGR	-0.02 ± 0.032
RRRVRAILPYTKVPDTDEISFLKGDMFIVHNELEDGWMWVTNLRTDEQGLIVEDGVEEVGR	-0.348 ± 0.028
RRRVRAILPYTKVPDTDEISFLKGDMFIVHNELEDGWMWVTNLRTDEQGLIVEDQVEEVGR	-0.033 ± 0.059
RRRVRAILPYTKVPDTDEISFLKGDMFIVHNELEDGWMWVTNLRTDEQGLIVEDIVEEVGR	-0.241 ± 0.034
RRRVRAILPYTKVPDTDEISFLKGDMFIVHNELEDGWMWVTNLRTDEQGLIVEDWVEEVGR	-0.165 ± 0.041
RRRVRAILPYTKVPDTDEISFLKGDMFIVHNELEDGWMWVTNLRTDEQGLIVEDVVEEVGR	-0.175 ± 0.029
RRRVRAILPYTKVPDTDEISFLKGDMFIVHNELEDGWMWVTNLRTDEQGLIVEDRVEEVGR	-0.034 ± 0.029
RRRVRAILPYTKVPDTDEISFLKGDMFIVHNELEDGWMWVTNLRTDEQGLIVEDEVEEVGR	-0.765 ± 0.12
RRRVRAILPYTKVPDTDEISFLKGDMFIVHNELEDGWMWVTNLRTDEQGLIVEDKVEEVGR	0.027 ± 0.051
RRRVRAILPYTKVPDTDEISFLKGDMFIVHNELEDGWMWVTNLRTDEQGLIVEDSVEEVGR	-0.018 ± 0.026
RRRVRAILPYTKVPDTDEISFLKGDMFIVHNELEDGWMWVTNLRTDEQGLIVEDAVEEVGR	0.032 ± 0.032
RRRVRAILPYTKVPDTDEISFLKGDMFIVHNELEDGWMWVTNLRTDEQGLIVEDFVEEVGR	0.015 ± 0.03

Variant	abundance fitness
RRRVRAILPYTKVPDTDEISFLKGDMFIVHNELEDGWMWVTNLRTDEQGLIVEDMVEEVGR	0.005 ± 0.057
RRRVRAILPYTKVPDTDEISFLKGDMFIVHNELEDGWMWVTNLRTDEQGLIVEDPVEEVGR	-0.925 ± 0.086
RRRVRAILPYTKVPDTDEISFLKGDMFIVHNELEDGWMWVTNLRTDEQGLIVEDYVEEVGR	0.034 ± 0.03
RRRVRAILPYTKVPDTDEISFLKGDMFIVHNELEDGWMWVTNLRTDEQGLIVEDDVEEVGR	-0.394 ± 0.035
RRRVRAILPYTKVPDTDEISFLKGDMFIVHNELEDGWMWVTNLRTDEQGLIVEDHVEEVGR	0.059 ± 0.034
RRRVRAILPYTKVPDTDEISFLKGDMFIVHNELEDGWMWVTNLRTDEQGLIVENLVEEVGR	0.013 ± 0.036
RRRVRAILPYTKVPDTDEISFLKGDMFIVHNELEDGWMWVTNLRTDEQGLIVEELVEEVGR	-0.069 ± 0.087
RRRVRAILPYTKVPDTDEISFLKGDMFIVHNELEDGWMWVTNLRTDEQGLIVEPLVEEVGR	-0.175 ± 0.049
RRRVRAILPYTKVPDTDEISFLKGDMFIVHNELEDGWMWVTNLRTDEQGLIVERLVEEVGR	0.133 ± 0.036
RRRVRAILPYTKVPDTDEISFLKGDMFIVHNELEDGWMWVTNLRTDEQGLIVETLVEEVGR	0.016 ± 0.051
RRRVRAILPYTKVPDTDEISFLKGDMFIVHNELEDGWMWVTNLRTDEQGLIVEVLVEEVGR	-0.233 ± 0.037
RRRVRAILPYTKVPDTDEISFLKGDMFIVHNELEDGWMWVTNLRTDEQGLIVEILVEEVGR	-0.338 ± 0.045
RRRVRAILPYTKVPDTDEISFLKGDMFIVHNELEDGWMWVTNLRTDEQGLIVEWLVEEVGR	-0.184 ± 0.059
RRRVRAILPYTKVPDTDEISFLKGDMFIVHNELEDGWMWVTNLRTDEQGLIVEKLVEEVGR	0.037 ± 0.073
RRRVRAILPYTKVPDTDEISFLKGDMFIVHNELEDGWMWVTNLRTDEQGLIVEHLVEEVGR	-0.225 ± 0.037
RRRVRAILPYTKVPDTDEISFLKGDMFIVHNELEDGWMWVTNLRTDEQGLIVEYLVEEVGR	-0.183 ± 0.032
RRRVRAILPYTKVPDTDEISFLKGDMFIVHNELEDGWMWVTNLRTDEQGLIVESLVEEVGR	0.058 ± 0.029
RRRVRAILPYTKVPDTDEISFLKGDMFIVHNELEDGWMWVTNLRTDEQGLIVEFLVEEVGR	-0.262 ± 0.041
RRRVRAILPYTKVPDTDEISFLKGDMFIVHNELEDGWMWVTNLRTDEQGLIVEQLVEEVGR	0 ± 0.075
RRRVRAILPYTKVPDTDEISFLKGDMFIVHNELEDGWMWVTNLRTDEQGLIVELLVEEVGR	-0.281 ± 0.041
RRRVRAILPYTKVPDTDEISFLKGDMFIVHNELEDGWMWVTNLRTDEQGLIVECLVEEVGR	-0.042 ± 0.035
